The results in this text go back to patent publication US5286714.

In the assay the target is thrombin. Briefly: Ki(app.) from kinetics of thrombin inhibition with chromogenic substrate D-HHT-Gly-Arg-pNA (Stone and Hofsteenge), 25° C.

With [Ala^1,Thr^2] desulfatohirudin, the Ki was determined as 0.2 nM.
The molecule [Leu^1,Thr^2] desulfatohirudin returned a Ki of 0.14 nM.
In turn, [Ile^1,Thr^2] desulfatohirudin came in with a Ki of 0.61 nM.

B1: [Ala^1,Thr^2,Glu^33,Glu^53] desulfatohirudin (protein)
chain: ATYTDCTESGQNLCLCEGSNVCGQGNKCILGSDGEKNQCVTGEGTPKPQSHNEGDFEEIPEEYLQ
On to B1, for which the Ki was 0.37 nM.

B2: [Ala^1,Thr^2,Glu^33,Gln^52,Glu^53,Ala^54]-desulfatohirudin (protein)
chain: ATYTDCTESGQNLCLCEGSNVCGQGNKCILGSEGEKNQCVTGEGTPKPQSHQEADFEEIPEEYLQ
As for B2, the Ki was found to be 0.31 nM.

B3: [Ala^1,Thr^2,Glu^33] desulfatohirudin (protein)
chain: ATYTDCTESGQNLCLCEGSNVCGQGNKCILGSEGEKNQCVTGEGTPKPQSHNDGDFEEIPEEYLQ
In turn, B3 returned a Ki of 0.16 nM.

B4: [Ala^1,Thr^2,Ala^54] desulfatohirudin (protein)
chain: ATYTDCTESGQNLCLCEGSNVCGQGNKCILGSDGEKNQCVTGEGTPKPQSHNDADFEEIPEEYLQ
Regarding B4, the Ki was 0.27 nM.

B5: [Ala^1,Thr^2,Glu^53] desulfatohirudin (protein)
chain: ATYTDCTESGQNLCLCEGSNVCGQGNKCILGSDGEKNQCVTGEGTPKPQSHNEGDFEEIPEEYLQ
B5: the Ki was found to be 0.38 nM.

B6: [Ala^1,Thr^2,Glu^33,Gln^52,Glu^53,Glu^55]-desulfatohirudin (protein)
chain: ATYTDCTESGQNLCLCEGSNVCGQGNKCILGSEGEKNQCVTGEGTPKPQSHQEGEFEEIPEEYLQ
In the case of B6, the Ki was found to be 0.3 nM.

B7: [Ala^1,Thr^2,Glu^33,Ala^54] desulfatohirudin (protein)
chain: ATYTDCTESGQNLCLCEGSNVCGQGNKCILGSEGEKNQCVTGEGTPKPQSHNDADFEEIPEEYLQ
Regarding B7, the Ki was determined as 0.35 nM.

B8: [Ala^1,Thr^2,Gln^52,Glu^53,Glu^55] desulfatohirudin (protein)
chain: ATYTDCTESGQNLCLCEGSNVCGQGNKCILGSDGEKNQCVTGEGTPKPQSHQEGEFEEIPEEYLQ
On to B8, for which the Ki stood at 0.19 nM.

B9: [Ala^1,Thr^2,Gln^52,Glu^53,Ala^54] desulfatohirudin (protein)
chain: ATYTDCTESGQNLCLCEGSNVCGQGNKCILGSDGEKNQCVTGEGTPKPQSHQEADFEEIPEEYLQ
The molecule B9 registered a Ki of 0.22 nM.
